Assay results as given in article PMC9321382.

What was measured:
Experiment in all cases: EMSA
Settings in all cases: EMSA: 5 nM pUC19, 30 min at room temperature, pH 7.0, 50 mM MOPS/50 mM NaCl (low) or 200 mM MOPS/200 mM NaCl (high); 1% agarose in TAE
[1] = system: EncA encapsulin shell (Myxococcus xanthus)
[2] = system: EncA encapsulin shell;EncC cargo protein (Myxococcus xanthus;Myxococcus xanthus)
[3] = system: EncA encapsulin shell (Myxococcus xanthus); remark: listed apart in the source
[4] = system: EncA encapsulin shell;EncC cargo protein (Myxococcus xanthus;Myxococcus xanthus); remark: listed apart in the source

Substance pUC19 supercoiled plasmid has a Kd [1] of 300 nM, a Kd [2] of 300 nM and a Kd [3] of 300 nM. The Kd [4] was 400 nM.
